According to patent US20180057593A1 (published 2018):
Positions count from the first letter of the chain named. Where two headings read alike, the source gives them in different places.

Columns and labels:
[1] = molecular target: T1, single chain CD3εγ heterodimer (UniProt P07766 23-118; P09693 23-103); test: Biacore
T1 chain: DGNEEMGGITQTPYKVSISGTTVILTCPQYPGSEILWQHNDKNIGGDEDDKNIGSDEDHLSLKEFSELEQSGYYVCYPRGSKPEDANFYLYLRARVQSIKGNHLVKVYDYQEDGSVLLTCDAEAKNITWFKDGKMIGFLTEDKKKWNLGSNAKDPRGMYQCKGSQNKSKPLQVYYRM

[2] = molecular target: T1, single chain CD3εγ heterodimer; test: Biacore

B1: Unmasked v4 TDB (bispecific antibody, V domains shown)
VH 1: EVQLVQSGAEVKKPGASVKVSCKASGFTFTSYYIHWVRQAPGQGLEWIGWIYPENDNTKYNEKFKDRVTITADTSTSTAYLELSSLRSEDTAVYYCARDGYSRYYFDYWGQGTLVTVSS
VL 1: DIVMTQSPDSLAVSLGERATINCKSSQSLLNSRTRKNYLAWYQQKPGQSPKLLIYWTSTRKSGVPDRFSGSGSGTDFTLTISSLQAEDVAVYYCKASFILRTFGQGTKVEIK
VH 2: EVQLVESGGGLVQPGGSLRLSCAASGYTFTSYNMHWVRQAPGKGLEWVGAIYPGNGDTSYNQKFKGRFTISVDKSKNTLYLQMNSLRAEDTAVYYCARVVYYSNSYWYFDVWGQGTLVTVSS
VL 2: DIQMTQSPSSLSASVGDRVTITCRASSSVSYMHWYQQKPGKAPKPLIYAPSNLASGVPSRFSGSGSGTDFTLTISSLQPEDFATYYCQQWSFNPPTFGQGTKVEIK
- Kd [1]: 119 nM
- Kd [2]: 119 nM

B2: Unmasked v1 TDB (bispecific antibody, V domains shown)
VH 1: B1 VH 1
VL 1: B1 VL 1 with A96Q
VH 2: B1 VH 2
VL 2: B1 VL 2
- Kd [1]: 1.2 nM
- Kd [2]: 1.2 nM

B3: Unmasked v3 TDB (bispecific antibody, V domains shown)
VH 1: B1 VH 1
VL 1: B1 VL 1 with A96Q, I99A
VH 2: B1 VH 2
VL 2: B1 VL 2
- Kd [1]: 3.5 nM
- Kd [2]: 3.5 nM

B4: Unmasked v5 TDB (bispecific antibody, V domains shown)
VH 1: B1 VH 1
VL 1: B1 VL 1 with A96Q, F98A
VH 2: B1 VH 2
VL 2: B1 VL 2
- Kd [1]: 18 nM
- Kd [2]: 18 nM
